# Reference: patent publication US9377466B2, “Compounds and methods” (Modpro AB, priority 2010, dated 2016)
# Like-named read-outs stand apart in the source and are kept apart here. Side chains are listed from the residue outwards. Ends that are not written are not given here. * marks the point of attachment. Benzoyl(4-SO2NH2) = NS(=O)(=O)c1ccc(C(=O)*)cc1; X1 = COc1ccc2cc(C(=O)*)c(=O)oc2c1; Ahx = NCCCCCC(=O)O
# Assays:
# thymidine kinase (TK) [1] = assay: Fluorescence binding studies with TK; details: 2 μM peptide, one and two equivalents of TK
# Procedure: Estimating that at least 60% of the peptides were then bearing the ligand, the solution was diluted to 2 μM concentration and the protein TK was added. The fluorescence response was screened after 15 min, 45 min, 2 hrs, and 20 hrs. A maximal response was seen after 2 hours of incubation time.
# A NUNC™ polystyrene 384 well plate (100 μl-volume) and pipette-tips were coated with Pluronic® overnight, then washed with H2O and dried. The fluorescence-measurement was carried out in Tris-buffers (Buffer for TK-studies: 20 mM Tris/HCl, 0.4 M NaCl, 0.3 M imidazole, 2 mM DTT, 50% glycerol, pH 7.6). Assuming that at least 60% of the dT-binder was conjugated to the polypeptides (see 0), stock-solutions were prepared with a concentration of 60 μM. The concentration of the TK stock solution was 0.10 mM. A polypeptide concentration of 2 μM in […] was used. The protein was added to wells containing the peptide conjugates to give final TK concentrations of 2 or 4 μM. Fluorescence intensities of protein-binder mixtures were compared to intensities of binders without protein and a significant change in fluorescence intensity in the presence of one equivalent of protein, in comparison to that of binder without protein, was interpreted as complexation of target protein by the binder. Binders showing a change in intensity in the presence of 2 μM protein but no further change in intensity in the presence of 4 μM protein were considered “hits”.
# The dansyl probe was excited at 335 nm and emission was recorded 420-600 nm. All measurements were performed at room temperature and were made in triplicates. The wells were read after 15 min, 45 min and 2 hours.
# [2] = CD spectroscopy, mean residue ellipticity of the sixteen scaffold polypeptides; type: physicochemical; details: error ±1000; for [θ]222 at high concentration: high concentration 30-230 μM as listed per peptide; for [θ]222 at low concentration: low concentration 1-5 μM as listed per peptide
# Procedure: The mean residue ellipticities at 222 nm, [θ]222, □ of the sixteen scaffold polypeptides were recorded at two concentrations, approximately 30 μM and approximately 1 μM, to characterize the state of aggregation, cf.
# The degree of helix formation is related to the monomer-dimer equilibrium since monomers are unordered with low helical content whereas dimers are highly helical. […] While the ^1H NMR spectra have not been recorded of all sequences and of all polypeptide conjugates, it is likely that the sequences presented here are best described as molten globules.
# hAChE = details: known inhibitor, literature; cited from earlier work
# thymidine kinase (TK) [3] = assay: Binding studies with TK in the presence of ATP (fluorescence, MALDI-TOF); details: for binding affinity to TK (in words): 1, 2 and 3 eq. TK, buffer with and without ATP; for time after which peptide is fully phosphorylated (MALDI-TOF): TK, buffer with ATP
# Procedure: The fluorescence intensities were measured in presence of 1, 2 and 3 eq. TK in buffer with and without ATP. The introduction of ATP represents a realistic measurement situation as it is present in biological samples and is likely to react with the probe in the presence of TK. Data were collected 15 min, 45 min and 2 hrs after adding the enzyme. The samples for MALDI-TOF were collected appr. 5 mins, 45 mins and 2 hours after adding the enzyme to measure the change in masses.
# [4] = tested on: human Carbonic Anhydrase (HCAI and HCAII); assay: Extraction from lysed blood by binders on nanoparticles (SDS-PAGE, MS); type: binding; details: lysed fresh blood, silver stained gel
# Procedure: The selected binders were resynthesized with an Acm-protected Cys residue in position 24. After removal of the Acm group the binders were immobilized on polystyrene nanoparticles coated with Pluronic® F108-PDS, by incubation for 1 hour in 10 mM Phosphate buffer at pH 7.4 containing 150 mM NaCl. The coating material forms monolayers of PEG equipped with activated disulfide groups that spontaneously react with free thiols under the release of 2-mercaptopyridine (Fromell, K., Hulting, G., Ilichev, A., Larsson, A. & Caldwell, K. C. Analytical Chemistry 79, 8601-07 (2007)).
# Approximately 60 μL of freshly drawn blood was lysed by dilution in 240 μL of distilled water followed by centrifugation to remove cell debris. HCAII resides in the red blood cells and in order to access the protein, cells have to be lysed. The supernatant was isolated and incubated with the functionalized nanoparticles for 30 minutes to allow them to capture HCAII. The particles were washed three times in PBS, and centrifuged after each wash. The binders and the captured proteins were cleaved from the particles using dithiothreitol and separated from the particles by centrifugation. […]
# There are two isoforms of human Carbonic Anhydrase, HCA I and HCAII, in blood. […] The bands from the gel were cut, […] digested and analysed by MALDI-TOF-MS, displaying that the bands contained both isoforms. […]
# HCAI = target: T1, HCAI (Homo sapiens, UniProt P00915); details: literature, read-out: dissociation constant Kd for HCAI, cited from earlier work
# T1 construct: purchased Sigma
# T1 sequence (P00915 whole entry): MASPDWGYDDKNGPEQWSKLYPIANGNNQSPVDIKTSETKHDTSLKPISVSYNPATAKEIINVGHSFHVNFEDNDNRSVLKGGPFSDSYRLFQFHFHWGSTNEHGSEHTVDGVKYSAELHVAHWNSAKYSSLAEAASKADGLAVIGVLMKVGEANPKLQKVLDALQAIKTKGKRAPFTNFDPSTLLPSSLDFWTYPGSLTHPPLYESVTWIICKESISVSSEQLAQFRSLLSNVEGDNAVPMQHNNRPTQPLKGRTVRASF
Molecule,[θ]222 at high concentration [2],[θ]222 at low concentration [2],also measured
"4-C15L8-dT: polypeptide 4-C15L8 conjugated to deoxy-thymidine (dT) probe 19 (NAADLEAKIRHLREKLAARGPRDAAQLAEQLARRFERFARAG; also: conjugated to deoxy-thymidine (dT) probe 19, site not given here)",,,classification in fluorescence screen (thymidine kinase (TK) [1]): not considered to be tight binders
1-C15L8: SEQ ID NO: 1 NEADLEAKIRHLAEKLEARGPEDAEQLAEQLARAFEAFARAG,−17800 deg cm^2 dmol^−1,−25100 deg cm^2 dmol^−1,
3-C10L17: SEQ ID NO: 7 NAADLEARIKHLAERLKARGPVDAAQLAEQLARAFEAFARAG,−22400 deg cm^2 dmol^−1,−20700 deg cm^2 dmol^−1,
Nc1c2ccccc2nc2ccccc12 [9-aminoacridine],,,reported affinity (hAChE): 30 to 100 nM
"3-C15L8-dT: polypeptide 3-C15L8 conjugated to deoxy-thymidine (dT) probe 19 (NAADLEAKIRHLAEKLAARGPVDAAQLAEQLARRFEAFARAG; also: conjugated to deoxy-thymidine (dT) probe 19, site not given here)",,,binding affinity to TK (in words) (thymidine kinase (TK) [3]): good but not as good as for 4-C10L17-dT; time after which peptide is fully phosphorylated (MALDI-TOF) (thymidine kinase (TK) [3]): 45 min
"4-C10L17-dT: polypeptide 4-C10L17 conjugated to deoxy-thymidine (dT) probe 19 (NAADLEARIKHLRERLKARGPRDAAQLAEQLARAFERFARAG; also: conjugated to deoxy-thymidine (dT) probe 19, site not given here)",,,binding affinity to TK (in words) (thymidine kinase (TK) [3]): strong binding affinity; time after which peptide is fully phosphorylated (MALDI-TOF) (thymidine kinase (TK) [3]): 45 min
Ac-NAADLEAK([Ahx-Benzoyl(4-SO2NH2)])IRHLAEK(X1)LAARGPVDAAQLAEQLARRFEAFARAG-NH2 (C-terminus assumed) [3-C15L8-B],,,proteins extracted from lysed blood [4]: extract Carbonic Anhydrases predominantly
3-C25L22: SEQ ID NO: 11 NAADLEAAIRHLAERLAARGPKDAKQLAEQLARAFEAFARAG,−26400 deg cm^2 dmol^−1,−23000 deg cm^2 dmol^−1,
2-C10L17: SEQ ID NO: 6 NAADLEAAIKHLAEALKARGPVDAAQLAEQLARAFEAFARAG,−23400 deg cm^2 dmol^−1,−20400 deg cm^2 dmol^−1,
2-C15L8: SEQ ID NO: 2 NEADLEAKIRHLAEKLAARGPVDAAQLAEQLARAFEAFARAG,−24900 deg cm^2 dmol^−1,−20800 deg cm^2 dmol^−1,
3-C15L8: SEQ ID NO: 3 NAADLEAKIRHLAEKLAARGPVDAAQLAEQLARRFEAFARAG,−23400 deg cm^2 dmol^−1,−19700 deg cm^2 dmol^−1,
4-C25L22: SEQ ID NO: 12 NAADLEARIRHLRERLAARGPKDAKQLAEQLARAFERFARAG,−23700 deg cm^2 dmol^−1,−18200 deg cm^2 dmol^−1,
benzenesulphonamidecarboxylic acid,,,Kd (HCAI; listed as benzenesulphonamide): 1 to 4 µM; Kd (HCAI): 1.1 to 3.9 µM
1-C10L17: SEQ ID NO: 5 NAADLEAAIKHLAEALKERGPEDCEQLAEQLARAFEAFARAG,−18200 deg cm^2 dmol^−1,−11800 deg cm^2 dmol^−1,
1-C25L22: SEQ ID NO: 9 NEADLEAAIRHLAEALEARGPKDAKQLAEQLARAFEAFERAG,−24800 deg cm^2 dmol^−1,−18000 deg cm^2 dmol^−1,
"3-C10L17-dT: polypeptide 3-C10L17 conjugated to deoxy-thymidine (dT) probe 19 (NAADLEARIKHLAERLKARGPVDAAQLAEQLARAFEAFARAG; also: conjugated to deoxy-thymidine (dT) probe 19, site not given here)",,,classification in fluorescence screen (thymidine kinase (TK) [1]): not considered to be tight binders
2-C25L22: SEQ ID NO: 10 NEADLEAAIRHLAEALAARGPKDAKQLAEQLARAFEAFARAG,−25000 deg cm^2 dmol^−1,−24800 deg cm^2 dmol^−1,
"2-C37L34-dT: polypeptide 2-C37L34 conjugated to deoxy-thymidine (dT) probe 19 (NAADLEAAIRHLAERLAARGPVDAAQLAEQLAAKFEKFARAG; also: conjugated to deoxy-thymidine (dT) probe 19, site not given here)",,,classification in fluorescence screen (thymidine kinase (TK) [1]): not considered to be tight binders
3-C37L34: SEQ ID NO: 15 NAADLEAAIRHLAERLAARGPVDAAQLAEQLARKFEKFARAG,−22500 deg cm^2 dmol^−1,−22200 deg cm^2 dmol^−1,
"4-C25L22-dT: polypeptide 4-C25L22 conjugated to deoxy-thymidine (dT) probe 19 (NAADLEARIRHLRERLAARGPKDAKQLAEQLARAFERFARAG; also: conjugated to deoxy-thymidine (dT) probe 19, site not given here)",,,classification in fluorescence screen (thymidine kinase (TK) [1]): not considered to be tight binders; binding affinity to TK (in words) (thymidine kinase (TK) [3]): generally good binding affinity; time after which peptide is fully phosphorylated (MALDI-TOF) (thymidine kinase (TK) [3]): 5 to 10 min
4-C37L34: SEQ ID NO: 16 NAADLEARIRHLRERLAARGPRDAAQLAEQLARKFEKFARAG,−19600 deg cm^2 dmol^−1,−14900 deg cm^2 dmol^−1,
2-C37L34: SEQ ID NO: 14 NAADLEAAIRHLAERLAARGPVDAAQLAEQLAAKFEKFARAG,−23900 deg cm^2 dmol^−1,−30300 deg cm^2 dmol^−1,
4-C15L8: SEQ ID NO: 4 NAADLEAKIRHLREKLAARGPRDAAQLAEQLARRFERFARAG,−22000 deg cm^2 dmol^−1,−15300 deg cm^2 dmol^−1,
